The text below walks through data of US8168595B2, “Antithrombotic dual inhibitors comprising a biotin residue” (priority 2004, dated 2012).

One data set concerns the target factor IIa (Homo sapiens, UniProt P00734). Description: In vitro amidolytic anti-factor IIa activity in human plasma (S2238). The format is biochemical. Particulars: human plasma pH 7.4, substrate S2238; read-out: Anti-IIa Human plasma pH 7.4 IC-50. As for the experimental part:
(§1) In Vitro Test for Determination of the Anti-Factor Xa and Factor IIa Activity in Human Plasma The anti-factor Xa and IIa activity of the tested compounds in human plasma were measured amidolytically using S2222 or S2238 (Chromogenix, Chromogenics Ltd, Molndal, Sweden) as substrates, respectively. The protcols were based on the method described by Teien and Lie. (Teien A N, Lie M. Evaluation of an amidolytic heparin assay method increased sensitivity by adding purified antithrombin III. Thromb. Res. 1977, 10: 399-410). Both activities are expressed in IC-50 (Mol/L).

A further data set has as its system factor Xa. Description: In vitro amidolytic anti-factor Xa activity in human plasma (S2222). Type of data set: biochemical. The following applies: human plasma pH 7.4, substrate S2222; read-out: Anti-Xa Human plasma pH 7.4 IC-50. The method, then:
as §1

Data set [1] can be described thus: Pharmacokinetics after s.c. administration in rats. Type of data set: in vivo, male Wistar rats. Particulars: rat, 100 nmol/kg s.c.; for AUC(0-inf) / MRT / Tmax / half-life / Cmax: male, Wistar, sc; for AUC(0-inf) / MRT / Tmax / half-life: plasma, 100 nmol/kg; for AUC(0-inf) / MRT / Tmax / half-life / Cmax / Cl / Vz: mean ± s.e.m.; for AUC(0-inf) / MRT / Tmax / Cmax / Cl / Vz: n = 3; for half-life: n = 3, read-out: T½ eli (converted); for pharmacokinetic behavior in rats, compound III compared with Org 42675: within the variability of the experiment. The method, then: 3.1 Pharmacokinetics The pharmacokinetic properties of Org 42675 and of compound III of this invention were studied in male Wistar rats of 300-400 gr. The rats were anaesthetized by inhalation of a mixture of O2/N2O/isoflurane, after which the right jugular vein was cannulated. The next day rats were treated s.c. with doses of 100 nmol/kg. After s.c. administration, blood was sampled at several time intervals. Then the blood was centrifuged after which the plasma was siphoned off and stored at −20° C. until use. The concentration of the tested compound was measured amidolytically using S-2222 or S-2238 as substrates (Chromogenix, Chromogenics Ltd, Molndal, Sweden) to determine the anti-Xa or anti-IIa activity, respectively. Both procedures were based on the methods of Teien and Lie (Teien A N, Lie M. Evaluation of an amidolytic heparin assay method increased sensitivity by adding purified antithrombin III. Thromb. Res. 1977, 10: 399-410). The concentrations in the obtained plasma samples were determined against a calibration curve which was made of the stock solution of the tested compound itself. The concentration in the samples was expressed in nmol/mL and the kinetic parameters were calculated with the noncompartment model of WinNonlin. (see FIG. 1)

The nature of data set [2]: Pharmacokinetics - neutralization experiment with avidin in rats. Type of data set: in vivo. The following applies: rat, 100 nmol/kg s.c. As for the experimental part:
3.2 Pharmacokinetics—Neutralization Experiment:
Rats were treated with compound III of this invention, or Org 42675 at a dose of 100 nmol/kg s.c. At t=2 h, a blood sample was taken and 10 mg/kg of Avidin (from egg white, Sigma) was administered i.v. to the rats treated with compound III of this invention or Org 42675. Blood was sampled at 0.17, 0.5, 1, 2, 3, and 7 hours subsequently. The blood was treated as described in the pharmacokinetic experiment and the concentration of the samples was determined by measuring the (residual) anti-Xa or anti-IIa activity. (see FIG. 2)

The conditions of data set [3]: in vivo; cited from earlier work.
The conditions of data set [4]: experimental thrombosis; cited from earlier work.
[5] abbreviates: plasma level by anti-IIa activity.
Setting [6] is: plasma level by anti_Xa activity.

One may read the AUC(0-inf) as total exposure, with the tail of the curve extrapolated. By MRT is commonly meant the average time that molecules of a dose stay in the body. One may read the Tmax as the time from dosing to the highest level. For orientation: Cmax means the peak of the concentration-time curve.

Counter-ions that a name gives are not always drawn. Like-named read-outs stand apart in the source and are kept apart here.

In the case of `COc1cc(C)c(S(=O)(=O)N[C@@H](CC(=O)NCCCC(=O)N[C@@H](CCCCNC(=O)CCCC[C@@H]2SC[C@@H]3NC(=O)N[C@@H]32)C(=O)NCCOCCOCCOCCO[C@H]2[C@H](OC)[C@@H](OC)[C@@H](O[C@H]3[C@H](OC)[C@@H](OC)[C@H](O[C@H]4[C@H](OS(=O)(=O)O)[C@@H](OS(=O)(=O)O)[C@@H](O[C@H]5[C@H](OC)[C@@H](OC)[C@H](O[C@H]6[C@H](OC)[C@@H](OS(=O)(=O)O)[C@@H](OC)O[C@@H]6COS(=O)(=O)O)O[C@H]5C(=O)O)O[C@@H]4COS(=O)(=O)O)O[C@@H]3C(=O)O)O[C@@H]2COS(=O)(=O)O)C(=O)N[C@H](Cc2ccc(C(=N)N)cc2)C(=O)N2CCCCC2)c(C)c1C` [Compound III, sodium salt], the IC50 on factor IIa was 16.2 nM. Further, the IC50 with factor Xa amounted to 0.843 nM. Also, in data set [1] (setting [5]), the area under the curve AUC(0-inf) is 5 ± 0.6 µM·h, the MRT came to 4.3 ± 0.3 h, the Tmax was 1.5 ± 0.5 h and the half-life is 2.7 ± 0.5 h. In data set [1] (setting [5]), this compound registered a Cl of 0.0206 ± 0.0024 L/h/kg and a Vz of 0.078 ± 0.0042 L/kg. For the same compound, in data set [1] (setting [6]), the AUC(0-inf) worked out at 7.2 ± 0.2 µM·h, the MRT is 5.9 ± 0.5 h, the time to peak (Tmax) came to 1.2 ± 0.4 h and the half-life was 3.9 ± 0.3 h. Moreover, in data set [1] (setting [6]), the concentration peaked (Cmax) at 1.1 ± 0.1 µM, the Cl was determined as 0.0139 ± 0.0004 L/h/kg and the Vz turned out to be 0.078 ± 0.0046 L/kg. Further, the “pharmacokinetic behavior in rats, compound III compared with Org 42675” value in data set [1] is recorded as “the same pharmacokinetic behavior”. The “neutralization of antithrombotic activity ((residual) anti-Xa and anti-IIa activity) by avidin” value in data set [2] (avidin 10 mg/kg i.v.) is “can be neutralized”.

For `COc1cc(C)c(S(=O)(=O)N[C@@H](CC(=O)NCCCC(=O)NCCOCCOCCOCCO[C@H]2[C@H](OC)[C@@H](OC)[C@@H](O[C@H]3[C@H](OC)[C@@H](OC)[C@H](O[C@H]4[C@H](OS(=O)(=O)O)[C@@H](OS(=O)(=O)O)[C@@H](O[C@H]5[C@H](OC)[C@@H](OC)[C@H](O[C@H]6[C@H](OC)[C@@H](OS(=O)(=O)O)[C@@H](OC)O[C@@H]6COS(=O)(=O)O)O[C@H]5C(=O)O)O[C@@H]4COS(=O)(=O)O)O[C@@H]3C(=O)O)O[C@@H]2COS(=O)(=O)O)C(=O)N[C@H](Cc2ccc(C(=N)N)cc2)C(=O)N2CCCCC2)c(C)c1C` [Org 42675, reference compound], at factor IIa, the IC50 is 17.8 nM. For the same compound, the IC50 in the data set on factor Xa is 0.767 nM. Further, in data set [1] (setting [6]), the AUC(0-inf) was determined as 5.3 ± 0.3 µM·h, the MRT came out at 4.6 ± 0.2 h, the Tmax was 2.3 ± 0.2 h and the half-life is 2.7 ± 0.2 h. In data set [1] (setting [6]), this compound registered a peak concentration (Cmax) of 1 ± 0.02 µM, a Cl of 0.0191 ± 0.0011 L/h/kg and a Vz of 0.074 ± 0.0045 L/kg. Further, the “pharmacokinetic behavior in rats, compound III compared with Org 42675” value in data set [1] is reported as “the same pharmacokinetic behavior”. Moreover, the AUC(0-inf) in data set [2] (Wistar, plasma, subcutaneous, avidin 10 mg/kg i.v. at t = 2 h, calculated from T = 2 h, anti_Xa activity, mean ± s.e.m., n = 3) is 4.8 ± 0.6 µM·h. Besides, in data set [2] (avidin 10 mg/kg i.v. at t = 2 h), the “pharmacokinetic behavior on addition of avidin” value was “not affected”. The “prolonged half-life in comparison to the corresponding non-conjugated direct thrombin inhibitor derived from NAPAP” value in data set [3] is recorded as 10 fold. For the same compound, the “efficacy in comparison with argatroban, heparin and fondaparinux” value in data set [4] was “improved efficacy”.
